# Laboratory results reported in US7368293 (ROCKEFELLER UNIVERSITY, dated 2008).
# B1: HNF-4 (hepatocyte nuclear factor 4), full length protein translated in vitro from pf7 cDNA (Xho I-cut template) (receptor)
# chain: MDMADYSAALDPAYTTLEFENVQVLTMGNDTSPSEGANLNSSNSLGVSALCAICGDRATGKHYGASSCDGCKGFFRRSVRKNHMYSCRFSRQCVVDKDKRNQCRYCRLKKCFRAGMKKEAVQNERDRISTRRSSYEDISLPSINALLQAEVLSQQITSPISGINGDIRAKRIASITDVCESMKEQLLVLVEWAKYIPAFCELLLDDQVALLRAHAGEHLLLGATKRSMVFKDVLLLGNDYIVPRHCPELAEMSRVSIRILDELVLPFQELQIDDNEYACLKAIIFFDPDAKGLSDPGKIKRLRSQVQVSLEDYINDRQYDSRGRFGELLLLLPTLQSITWQMIEQIQFIKLFGMAKIDNLLQEMLLGGSASDAPHAHHPLHPHLMQEHMGTNVIVANTMPSHLTNGQMSTPETPQPSPPSGSGSESYKLLPGAITTIVKPPSAIPQPTITKQEAI
# notes: Translated in rabbit reticulocyte lysate from T3/T7 transcripts of pf7 (rat liver cDNA); also called full length cDNA (Xho I); in vitro synthesized HNF-4
# Target: the molecule itself
# Assay: in vitro translation, gel mobility-shift with 32P APF-1 probe; inferred from heterodimer bands and absence of monomer complexes
# Description: Since amino acids in the ligand binding domain of the estrogen receptor are known to be necessary for receptor dimerization and subsequent DNA binding (Kumar & Chambon, 1988; Fawell et al., 1990), we determined whether HNF-4 binds to its recognition site as a monomer or as a dimer. The full length cDNA (Xho I) was co-translated in vitro with either of the two truncated products that bind DNA (PflM I and Hga I) and the products were tested in the mobility-shift assay. When the full length and truncated transcripts were translated together, complexes of intermediate mobility were produced with both the APF-1 probe (lanes 3 and 5, FIG. 5D) and the −151 to −130 TTR probe (not shown).
protein,measurement,value
B1,binding result,binds
